Laboratory results as given in US20190359726A1 (CRAGE MEDICAL, published 2019).
Residue numbers refer to the chain shown, from its start. Blank lines part the entries; values can stand above or below the binder they belong to.

Experiments:
[1] = biological target: T1, human BCMA, full length, on cells (human, UniProt Q02223 1-184); test: flow cytometry on K562-BCMA cells, scFv_Fc titrated, FITC anti-human Fc
T1 construct: the cell line is named in each row's assay; also called K562-BCMA; K562 stably expressing BCMA
T1 sequence: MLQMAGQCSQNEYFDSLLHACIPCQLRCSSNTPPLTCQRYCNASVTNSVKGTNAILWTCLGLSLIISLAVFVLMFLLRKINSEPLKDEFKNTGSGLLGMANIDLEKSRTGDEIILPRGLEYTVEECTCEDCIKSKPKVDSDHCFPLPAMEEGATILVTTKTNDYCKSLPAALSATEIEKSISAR
Procedure: K562 and K562 cells (K562-BCMA) stably expressing human BCMA were used and harvested, washed with complete growth medium, and plated into U-bottom microtiter plates at about 1 to 5×10⁵ cells/well. The gradient-diluted scFv_Fc fusion antibody was incubated with K562-BCMA/K562 for 30 minutes on ice, and then incubated with FITC-labeled anti-human Fc as a secondary antibody. After two washing steps, the analysis was performed using a Guava easyCyte™ HT System, and the experimental data was processed using GraphPad Prism to obtain an EC50.

BCMA_huFc [2] = biological target: BCMA_huFc (human); test: biacore, supernatant of the clone after reinduction
TACI huFc (R&D, #174TC) = biological target: T2, TACI huFc (R&D, #174TC) (human, UniProt O14836 2-166, limits assumed); test: ELISA(scFv), 2 ug/ml coated antigen, HRP anti-Flag tag antibody
T2 construct: Bought reagent; also called human TACI; not shown: human Fc (huFc)
T2 sequence (looked up): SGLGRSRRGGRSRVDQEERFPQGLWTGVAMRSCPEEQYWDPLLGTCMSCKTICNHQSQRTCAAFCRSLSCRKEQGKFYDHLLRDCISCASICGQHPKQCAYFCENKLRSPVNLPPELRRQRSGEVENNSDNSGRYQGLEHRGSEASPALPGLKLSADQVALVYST
Procedure: (§1) 2 ug/ml recombinant human BCMA Fc, mouse BCMA Fc, TACI huFc (R&D, #174TC), BAFF R (R&D, #1162-BR) were coated on immunoplates at 4° C. overnight. The next day, 300 μl/well of 2% MPBS was added for 2 hours, then 200 nM purified antibody (scFv format) was added and incubated at 37° C. for 1 hour, washed three times with PBST (PBS containing 0.05% Tween-20), and washed three times with PBS. And then 1:4000 diluted HRP-labeled anti-Flag tag antibody (sigma, #A8592-1MG) was added, incubated for 1 hour at 37° C., washed three times with PBST (PBS containing 0.05% Tween-20) and washed three times with PBS. 100 ul/well of TMBS substrate was added and developed for 10-15 minutes. The reaction was quenched by adding 50 ul of 2 M sulfuric acid.

BAFF R (R&D, #1162-BR) = biological target: T3, BAFF R (R&D, #1162-BR) (human, UniProt Q96RJ3 7-71, limits assumed); test: as above
T3 construct: Bought reagent; also called human BAFF R
T3 sequence (looked up): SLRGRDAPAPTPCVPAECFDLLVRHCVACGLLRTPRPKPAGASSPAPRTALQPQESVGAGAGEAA
Procedure: as §1

BCMA_huFc [3] = biological target: BCMA_huFc (human); test: biacore, supernatant of the clone after reinduction; column headed Dissociation constant (Kd, S^-1)
[4] = biological target: T4, recombinant human BCMA Fc (human, UniProt Q02223 1-54); test: ELISA(scFv), 2 ug/ml coated antigen, 200 nM scFv, HRP anti-Flag tag antibody
T4 construct: not shown: Fc
T4 sequence: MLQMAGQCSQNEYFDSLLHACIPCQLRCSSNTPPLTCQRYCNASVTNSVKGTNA
Procedure: as §1

EC50 [1]: 2.59 nM
B1: 25C2 (scFv_Fc) (Fc fusion)
chain: EVQLLESGGGLVQPGGSLRLSCAASGFTFGGNAMSWVRQAPGKGLEWVSAISGNGGSTFYADSVKGRFTISRDNSKNTLYLQMNSLRAEDTAVYYCAKVRPFWGTFDYWGQGTLVTVSSGGGGSGGGGSGGGGSEIVLTQSPGTLSLSPGERATLSCRASQSVSSSYLAWYQQKPGQAPRLLIYGASSRATGIPDRFSGSGSGTDFTLTISRLEPEDFAVYYCQQYFNPPEYTFGQGTKVEIK
notes: also called clone 25C2; not shown: human Fc fragment of vector V152

EC50 [1]: 1.89 nM
B2: 25D2 (scFv_Fc) (Fc fusion)
chain: B1 chain with G30R, G31S, N32Y, N54G, S57N
notes: also called clone 25D2; not shown: human Fc fragment of vector V152

fold lower Kd (dissociation rate) than parental clone 23F10 (BCMA_huFc [2]): 10 times
binding result (TACI huFc (R&D, #174TC)): no binding (tested: 200 nM)
binding result (BAFF R (R&D, #1162-BR)): no binding (tested: 200 nM)
koff (BCMA_huFc [3]): 0.000364 s⁻¹
binding result [4]: binds
B3: 25C2 scFv (scFv)
scFv: EVQLLESGGGLVQPGGSLRLSCAASGFTFGGNAMSWVRQAPGKGLEWVSAISGNGGSTFYADSVKGRFTISRDNSKNTLYLQMNSLRAEDTAVYYCAKVRPFWGTFDYWGQGTLVTVSSGGGGSGGGGSGGGGSEIVLTQSPGTLSLSPGERATLSCRASQSVSSSYLAWYQQKPGQAPRLLIYGASSRATGIPDRFSGSGSGTDFTLTISRLEPEDFAVYYCQQYFNPPEYTFGQGTKVEIKR
notes: scFv format; also called clone 25C2

fold lower Kd (dissociation rate) than parental clone 23F10 (BCMA_huFc [2]): 10 times
binding result (TACI huFc (R&D, #174TC)): no binding (tested: 200 nM)
binding result (BAFF R (R&D, #1162-BR)): no binding (tested: 200 nM)
koff (BCMA_huFc [3]): 0.000374 s⁻¹
binding result [4]: binds
B4: 25D2 scFv (scFv)
scFv: B3 scFv with G30R, G31S, N32Y, N54G, S57N
notes: scFv format; also called clone 25D2
